The source of these data is US20140335016A1 (PROCLARA BIOSCIENCES, published 2014).

Assay [1] concerns the target T1, amyloid-β 1-42 fibers (fAβ42) (human, UniProt P05067 672-713). Nature of the assay: cell-based or functional assay.
The target in assay [2] is T1, amyloid-β 1-42 fibers (fAβ42). The assay can be described thus: SPR, fAβ immobilized on the chip, 10^14 phage/mL.

One may read the Kd as the constant that tells how readily two partners part at equilibrium.

T1 sequence (P05067 672-713 limits assumed): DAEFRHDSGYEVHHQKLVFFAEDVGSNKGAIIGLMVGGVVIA

B1: recombinant soluble g3p fragment comprising the N1 and N2 domains, rs-g3p(N1N2), Construct 3 (other)
chain: MAETVESCLAKSHTENSFTNVWKDDKTLDRYANYEGCLWNATGVVVCTGDETQCYGTWVPIGLAIPENEGGGSEGGGSEGGGSEGGGTKPPEYGDTPIPGYTYINPLDGTYPPGTEQNPANPNPSLEESQPLNTFMFQNNRFRNRQGALTVYTGTVTQGTDPVKTYYQYTPVSSKAMYDAYWNGKFRDCAFHSGFNEDLFVCEYQGQSSDLPQPPVNAPSGHHHHHH
Regarding B1, in assay [1], the “ThT fluorescence assay, IC50” value is approximately 20 nM.

B2: M13 filamentous bacteriophage (construct not stated) (other)
chain: AETVESCLAKPHTENSFTNVWKDDKTLDRYANYEGCLWNATGVVVCTGDETQCYGTWVPIGLAIPENEGGGSEGGGSEGGGSEGGGTKPPEYGDTPIPGYTYINPLDGTYPPGTEQNPANPNPSLEESQPLNTFMFQNNRFRNRQGALTVYTGTVTQGTDPVKTYYQYTPVSSKAMYDAYWNGKFRDCAFHSGFNEDPFVCEYQGQSSDLPQPPVNAGGGSGGGSGGGSEGGGSEGGGSEGGGSEGGGSGGGSGSGDFDYEKMANANKGAMTENADENALQSDAKGKLDSVATDYGAAIDGFIGDVSGLANGNGATGDFAGSNSQMAQVGDGDNSPLMNNFRQYLPSLPQSVECRPFVFSAGKPYEFSIDCDKINLFRGVFAFLLYVATFMYVFSTFANILRNKES
notes: Whole phage particle; also called M13 phage; wildtype M13
In turn, B2 came in with a Kd in assay [2] of approximately 4 nM.
